This assay has as its target HLA-A*02:01. The experiment in a line: IEDB peptide-MHC binding, cellular MHC/competitive/fluorescence; ≥ and ≤ were set here for values at or beyond the usual limits of such assays. The settings on record: source organism: Human papillomavirus 16.

The term IC50 denotes the point on the concentration scale where inhibition reaches its midpoint. A higher IC50 goes with weaker potency.

With IRTLEDLLMGT, the IC50 was 31.9 µM.
The same measure for YMLDLQPETTD: 2.37 µM; for TLHEYMLDLQP: 19.4 µM; for RTLEDLLMGT: 66.9 µM.
In turn, EDLLMGTLGIV came in with an IC50 of 14.2 µM.
The value for ELQTTIHDI was 36.9 µM; that for EYMLDLQPET was 45.3 µM; that for MLDLQPET was 53.7 µM.
The same measure for TLEDLLMGT: 64.6 µM; for RTLEDLLMGTL: 2.69 µM; for YMLDLQPE: 8.07 µM.

(Values after the Immune Epitope Database (IEDB).)
